B1: library; numbered along this chain (parent)
chain: MRKPRAAVGSGHRKQAASQEGRQKHAKNNSQAKPSACDGLARQPEEVVLQASVSSYHLFRDVAEVTAFRGSLLSWYDQEKRDLPWRRRAEDEMDLDRRAYAVWVSEVMLQQTQVATVINYYTGWMQKWPTLQDLASASLEEVNQLWAGLGYYSRGRRLQEGARKVVEELGGHMPRTAETLQQLLPGVGRYTAGAIASIAFGQATGVVDGNVARVLCRVRAIGADPSSTLVSQQLWGLAQQLVDPARPGDFNQAAMELGATVCTPQRPLCSQCPVESLCRARQRVEQEQLLASGSLSGSPDVEECAPNTGQCHLCLPPSEPWDQTLGVVNFPRKASRKPPREESSATCVLEQPGALGAQILLVQRPNSGLLAGLWEFPSVTWEPSEQLQRKALLQELQRWAGPLPATHLRHLGEVVHTFSHIKLTYQVYGLALEGQTPVTTVPPGARWLTQEEFHTAAVSTAMKKVFRVYQGQQPGTCMGSKRSQVSSPCSRKKPRMGQQVLDNFFRSHISTDAHSLNSAAQ

Variants of: B1
Experiment: 8OG:A repair function score (normalized; synonymous = 0, nonsense = -1) (normalized log-likelihood score); higher = more repair activity (WT-like)
Conditions: with 8OG:A DNA repair reporter (GFP) in HEK-293 MUTYH KO cells
Method: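 Saturation mutagenesis (NNN codon scan) of the MUTYH cDNA (521-aa nuclear isoform NM_001048174.1 / NP_001041639), stably expressed under doxycycline induction in HEK-293 MUTYH knockout cells. Cells were co-transfected with an 8OG:A-bearing GFP repair reporter plus mCherry and sorted 72 h later into GFP+ and GFP− bins, three replicates per tile. The Rosace log2 enrichment (GFP+ vs GFP−) was converted per tile to a normalized function score with synonymous variants centered at 0 and nonsense variants (codons 1-471) at -1; low-abundance variants were removed.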

In order of rising “8OG:A repair function score” value:
1. A99E  -1.34
2. L396D  -1.33
3. P377E  -1.13
4. C278D  -1.08
5. S197K  -1
6. C278Y  -0.972
7. P377Q  -0.969
8. S197I  -0.959
9. L234E  -0.954
10. L109K  -0.951
11. L349P  -0.901
12. L392G  -0.896
13. G209D  -0.851
14. Q252V  -0.798
15. V214H  -0.795
16. F59E  -0.768
17. V104K  -0.731
18. L237D  -0.692
19. Y425Q  -0.626
20. A457N  -0.58
21. P377T  -0.573
22. F59S  -0.561
23. G193I  -0.531
24. L83Y  -0.478
25. A371Y  -0.46
26. L109N  -0.45
27. D96V  -0.431
28. P129K  -0.414
29. R279T  -0.339
30. G170V  -0.31
31. S136F  -0.278
32. F330C  -0.248
33. A371R  -0.219
34. L109S  -0.213
35. R332K  -0.206
36. R332G  -0.193
37. G444P  -0.189
38. V166Y  -0.184
39. A371C  -0.182
40. A391S  -0.175
41. W381S  -0.174
42. T436S  -0.173
43. K333Q  -0.166
44. N329A  -0.161
45. A115F  -0.146
46. P443R  -0.143
47. S231G  -0.125
48. S231C  -0.12
49. N307C  -0.119
50. V261C  -0.11
51. T460I  -0.102
52. D94S  -0.0913
53. T308F  -0.0849
54. G236L  -0.0738
55. S318R  -0.0645
56. R467G  -0.0609
57. Q181L  -0.0425
58. V284W  -0.0406
59. L229W  -0.0377
60. E92D  -0.0315
61. A89I  -0.0304
62. N307I  -0.0284
63. Q473K  -0.0281
64. T436F  -0.0267
65. P317T  -0.0225
66. V284Y  -0.0139
67. L289Y  -0.00792
68. N307Q  -0.00475
69. P474G  -0.00334
70. T511G  0.00111
71. S480R  0.00162
72. H508P  0.00413
73. D502T  0.00564
74. H508E  0.0183
75. Q473H  0.0203
76. K333R  0.0284
77. A391V  0.0327
78. S344M  0.0335
79. P443H  0.055
80. E341H  0.0806
81. T436D  0.113
82. G434A  0.188
83. G236E  0.29
